Residue numbers refer to the chain shown, from its start. Each block holds one binder with its values, some of them ahead of it.
How the values were obtained:
[1] = biological target: T1, human CD70 expressed on Molm-13 tumor cells (human, UniProt P32970 1-193); experiment: cell-based or functional assay
T1 sequence (looked up): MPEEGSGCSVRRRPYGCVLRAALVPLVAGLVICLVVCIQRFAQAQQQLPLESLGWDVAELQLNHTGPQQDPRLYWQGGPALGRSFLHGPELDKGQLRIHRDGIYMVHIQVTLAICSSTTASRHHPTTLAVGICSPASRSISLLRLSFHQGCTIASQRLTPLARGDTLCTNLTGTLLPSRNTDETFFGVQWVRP

[2] = biological target: T1, human CD70 expressed on Molm-13 tumor …; experiment: flow cytometry (MFI) on CD70-expressing Molm-13 N1 tumor cells
Protocol: Binding of binding proteins of the invention to CD70 expressed on the surface of cells was analyzed by fluorescence activated cell sorting (FACS) flow cytometry. For this purpose, CD70-expressing tumor cells (Molm-13 N1) were seeded at 100,000 cells per well in a 96 well plate. DARPin® protein #2, DARPin® protein #9, DARPin® protein #24 and DARPin® protein #25 were titrated down in 1:5 dilution ratio starting at 2000 nM. Tumor cells were resuspended with diluted DARPin proteins and incubated for 60 minutes at 4° C., The assay was performed in PBS including 2% fetal bovine serum without human serum albumin (HSA). After washing twice with Phosphate Buffer saline (PBS), DARPin® protein specific tumor cell binding was detected by adding unlabeled primary anti-rabbit DARPin® antibody (anti-rabbit 1-1-1 antibody, CePower) at 2 μg/ml. An incubation step of at least 30 minutes at 4° C. followed. Afterwards, cells were washed with PBS and a secondary goat anti-rabbit antibody labelled with Alexa Fluor 488 antibody (ThermoFisher) at 2 μg/ml was added. The same incubation conditions applied. Finally, the cells were washed twice and resuspended In Cytofix fixation buffer (BD Biosciences) for 15 min at room temperature (RT). Median fluorescence intensities (MFI) of Alexa Fluor 488 DARPin® protein labelled tumor cells were measured by Attune NXT (ThermoFisher) using FlowJo software for analyses and GraphPad Prism 8 for data plotting.

[3] = biological target: T2, biotinylated recombinant human CD70 (extracellular domain, Fc tag) (human, UniProt P32970 52-193, chemically biotinylated using 5-fold excess of Biotin); experiment: SPR (ProteOn XPR36), bio.CD70 immobilized on NLC chip, DARPin as analyte
T2 construct: Bought from ACROBiosystems; also called bio.hCD70; Bio.CD70; not shown: C-terminal Fc Tag of the bought protein (ACROBiosystems)
T2 sequence: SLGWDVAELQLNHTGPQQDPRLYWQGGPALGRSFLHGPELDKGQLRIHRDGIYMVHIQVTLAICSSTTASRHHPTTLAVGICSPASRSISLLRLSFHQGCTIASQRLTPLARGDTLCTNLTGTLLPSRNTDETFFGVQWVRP
Protocol: The binding affinities of purified ankyrin repeat proteins on recombinant human CD70 target were analyzed using a ProteOn XPR36 instrument (BioRad) and the measurement was performed according standard procedures known to the person skilled in the art.
Bio.CD70 was immobilized on a NLC chip and the ankyrin repeat proteins were applied as titration with a starting concentration of 100 nM and then titrated down to 1.2 nM. The signals were double referenced against the PBST-treated control lane of L1 and A6. Analyte injection was performed for 120 s followed by a dissociation for 1500 s.

[4] = biological target: T2, biotinylated recombinant human CD70 …; experiment: crude extract HTRF
[5] = biological target: T2, biotinylated recombinant human CD70 …; experiment: SPR, bio.hCD70 on neutravidin-coated GLC chip, DARPin as analyte, 1:1 Langmuir fit
Protocol: Moreover, the binding affinities of two additional purified ankyrin repeat proteins on recombinant human CD70 target were measured and analyzed with a procedure as described above for DARPin proteins #2, #3, #5 to #12. Briefly, neutravidin was precoated on a GLC chip (BioRad) to a level of 5300 RU. In a second step, bio.hCD70 was immobilized to a level of 510 RU. The binding of DARPin protein #24 and DARPin protein #25 to bio.hCD70 was measured by Injecting the DARPin® molecule in a serial dilution of […]. For all described measurements, an association of 120 s and dissociation of 1200 s using a constant flow of 100 μl/min were applied. The CD70 target was regenerated with 4M MgCl₂ applied for 30s. The signals were double referenced against interspot and the running buffer (PBST: PBS pH 7.4 containing 0.005% […]) treated control lane A6. The 1:1 Langmuir model was used for the fitting.

binding result [4]: binds
B3: DARPin® protein #1 (designed binder)
chain: MRGSHHHHHHGSDLGYKLLQAAYDGQDDEVRILLAAGADVNAKDSRGQTPLHYAASIGHLEIVEVLLKAGADVNAKDDHGWTPLHLAAWSGHLEIVEVLLKAGADVNAQDQEGTTPADLAAVQSHEDIAEVLQKAA

EC50 [2]: 5.2 nM
Kd [5]: 0.0081 nM
B4: DARPin® protein #24 (designed binder)
chain: MRGSHHHHHHGSDLGIKLLTAAYDGQLDEVRILLKAGADVNAKDLRGQTPLHYAAGLGHLEIVEVLLKAGADVNAKDLHGWTPLHLAAWSGHLEIVEVLLKAGADVNAQDVEGVTPADLAAVQGHQDIAEVLQKAA
notes: expressed as monovalent designed ankyrin repeat protein with N-terminal His-tag

Kd [3]: 16 nM
B8: DARPin® protein #10 (designed binder)
chain: MRGSHHHHHHGSDLGFKLLNAAVQGQDDEVRILLAAGADVNAKDLRGTTPLHLAAQFGHLEIVEVLLKAGADVNAKDVWGATPLHLAAEHGHLEIVEVLLKAGADVNAQDNAGKTPADLAAQDGHEDIAEVLQKAA

Kd [3]: 28 nM
B9: DARPin® protein #12 (designed binder)
chain: MRGSHHHHHHGSDLGKKLLQAARAGQLDEVRELLKAGADVNAKDQTGYTPLHLAARHGHLEIVEVLLKAGADVNAKDEYGWTPLHIAAFIGPLEIVEVLLKAGADVNAKDEQGATPLHLAAWQGHLEIVEVLLKAGADVNAQDKSGKTPADLAARAGHQDIAEVLQKAA

Kd [3]: 3 nM
B10: DARPin® protein #11 (designed binder)
chain: MRGSHHHHHHGSDLGIKLLYAAYFGQDDEVRILLAAGADVNAKDWLGKTPLHLAATEGHLEIVEVLLKAGADVNAKDEWGETPLHKAAQEGHLEIVEVLLKAGADVNAQDSAGYTPADLAAQVGHEDIAEVLQKAA

EC50 [2]: 27 nM
Kd [5]: 13 nM
B13: DARPin® protein #25 (designed binder)
chain: MRGSHHHHHHGSDLGKKLLQAARAGQLDEVRELLKAGADVNAKDQQGLTPLHIAANLGHLEIVEVLLKAGADVNAKDLFGLTPLHLAAFEGHLEIVEVLLKAGADVNAKDQHGATPLHLAAWVGHLEIVEVLLKAGADVNAQDKSGKTPADLAARAGHQDIAEVLQKAA
notes: as for B4

The next lines start with the binder.

B1: DARPin® protein #26 (designed binder)
chain: MRGSHHHHHHGSDLGIKLLTAAYDGQLDEVRILLKAGADVNAKDLRGQTPLHYAAGLGHLEIVEVLLKAGADVNAKDLHGWTPLHLAAWSGHLEIVEVLLKAGADVNAQDVEGVTPADLAAVQGHQDIAEVLQKAAGSPTPTPTTPTPTPTTPTPTPTGSDLGQKLLEAAWAGQDDEVRELLKAGADVNAKNSRGWTPLHTAAQTGHLEIFEVLLKAGADVNAKNDKRVTPLHLAAALGHLEIVEVLLKAGADVNARDSWGTTPADLAAKYGHQDIAEVLQKAA
EC50 of in vitro T-cell activation and tumor cell killing (Molm-13-N1 target cells), improvement over the parental binding protein [1]: ~7 fold

B2: DARPin® protein #2 (designed binder)
chain: B3 chain with D27L, A35K, S124G, E126Q
notes: Parent of DARPin protein #24
EC50 [2]: 4.9 nM
Kd [3]: 0.45 nM

B5: DARPin® protein #3 (designed binder)
chain: MRGSHHHHHHGSDLGQKLLHAAQVGQDDEVRILLAAGADVNAKDTRGITPLHDTAFYGHLEIVEVLLKAGADVNAKDVTGWTPLHLAAYTGHLEIVEVLLKAGADVNAQDNEGITPADLAAFHGHEDIAEVLQKAA
Kd [3]: 3.1 nM

B6: DARPin® protein #7 (designed binder)
chain: MRGSHHHHHHGSDLGAKLLNAATVGQDDEVRILLAAGADVNAKDWSGQTPLHHAAYTGHLEIVEVLLKAGADVNAKDSWGWTPLHLAAYTGHLEIVEVLLKAGADVNAQDKEGSTPADLAAFHGHEDIAEVLQKAA
Kd [3]: 5.7 nM

B7: DARPin® protein #5 (designed binder)
chain: MRGSHHHHHHGSDLGFKLLQAALRGQLDEVRILLKAGADVNAKDQLGTTPLHLAAHYGHLEIVEVLLKAGADVNAKDVWGDTPLHLAAQHGHLEIVEVLLKAGADVNAQDRAGYTPADLAAQEGHEDIAEVLQKAA
Kd [3]: 5.8 nM

B11: DARPin® protein #8 (designed binder)
chain: MRGSHHHHHHGSDLGHKLLFAAVRGQDDEVRILLAAGADVNAKDTRGVTPLHLAASWGHLEIVEVLLKAGADVNAKDELGNTPLHLAATDGHLEIVEVLLKAGADVNAQDWVGKTPADLAAWWGHEDIAEVLQKAA
Kd [3]: 1.1 nM

B12: DARPin® protein #9 (designed binder)
chain: B13 chain with Q46A, N56A, L57T, L78F, F79S, A114Q, V123T
notes: Parent of DARPin protein #25
EC50 [2]: 475 nM
Kd [3]: 27 nM

B14: DARPin® protein #6 (designed binder)
chain: MRGSHHHHHHGSDLGKKLLEAARAGQDDEVRILLAAGTDVNAKDARGSTPLHVAAIHGHLEIVEVLLKAGADVNAKDTWGWTPLHLAAYAGHLEIVEVLLKAGADVNAQDEEGQTPADLAAFHGHEDIAEVLQKAA
Kd [3]: 43 nM

B15: DARPin® protein #27 (designed binder)
chain: MRGSHHHHHHGSDLGKKLLQAARAGQLDEVRELLKAGADVNAKDQQGLTPLHIAANLGHLEIVEVLLKAGADVNAKDLFGLTPLHLAAFEGHLEIVEVLLKAGADVNAKDQHGATPLHLAAWVGHLEIVEVLLKAGADVNAQDKSGKTPADLAARAGHQDIAEVLQKAAGSPTPTPTTPTPTPTTPTPTPTGSDLGQKLLEAAWAGQDDEVRELLKAGADVNAKNSRGWTPLHTAAQTGHLEIFEVLLKAGADVNAKNDKRVTPLHLAAALGHLEIVEVLLKAGADVNARDSWGTTPADLAAKYGHQDIAEVLQKAA
EC50 of in vitro T-cell activation and tumor cell killing (Molm-13-N1 target cells), improvement over the parental binding protein [1]: ~31 fold

From US20250074994A1 (Molecular Partners, published 2025)
